T1: Torpedo californica muscle-type nicotinic acetylcholine receptor δ subunit (Torpedo californica (Tetronarce …, UniProt P02718 22-522))
T1 sequence (looked up): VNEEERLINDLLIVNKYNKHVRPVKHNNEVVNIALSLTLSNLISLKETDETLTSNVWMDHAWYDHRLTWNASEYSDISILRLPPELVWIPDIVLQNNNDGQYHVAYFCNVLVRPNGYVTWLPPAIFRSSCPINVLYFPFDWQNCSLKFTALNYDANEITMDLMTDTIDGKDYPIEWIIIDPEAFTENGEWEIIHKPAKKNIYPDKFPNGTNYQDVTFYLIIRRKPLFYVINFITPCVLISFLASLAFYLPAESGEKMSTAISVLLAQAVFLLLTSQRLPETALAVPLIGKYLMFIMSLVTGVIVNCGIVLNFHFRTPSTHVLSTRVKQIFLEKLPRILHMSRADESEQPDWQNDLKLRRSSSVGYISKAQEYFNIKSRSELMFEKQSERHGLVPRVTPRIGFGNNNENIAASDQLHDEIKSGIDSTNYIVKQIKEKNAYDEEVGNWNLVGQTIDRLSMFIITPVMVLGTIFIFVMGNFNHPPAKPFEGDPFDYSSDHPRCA

B1: Torpedo californica muscle-type nicotinic acetylcholine receptor β subunit (natural protein, UniProt P02712 25-493, looked up)
chain: SVMEDTLLSVLFETYNPKVRPAQTVGDKVTVRVGLTLTNLLILNEKIEEMTTNVFLNLAWTDYRLQWDPAAYEGIKDLRIPSSDVWQPDIVLMNNNDGSFEITLHVNVLVQHTGAVSWQPSAIYRSSCTIKVMYFPFDWQNCTMVFKSYTYDTSEVTLQHALDAKGEREVKEIVINKDAFTENGQWSIEHKPSRKNWRSDDPSYEDVTFYLIIQRKPLFYIVYTIIPCILISILAILVFYLPPDAGEKMSLSISALLAVTVFLLLLADKVPETSLSVPIIIRYLMFIMILVAFSVILSVVVLNLHHRSPNTHTMPNWIRQIFIETLPPFLWIQRPVTTPSPDSKPTIISRANDEYFIRKPAGDFVCPVDNARVAVQPERLFSEMKWHLNGLTQPVTLPQDLKEAVEAIKYIAEQLESASEFDDLKKDWQYVAMVADRLFLYVFFVICSIGTFSIFLDASHNVPPDNPFA

Legend:
[1] = target: B1; test: cryo-EM structure
[2] = target: T1, Torpedo californica muscle-type …; test: cryo-EM structure

Row | Binder | binding result [1] | binding result [2]
1 | Torpedo californica muscle-type nicotinic acetylcholine receptor α subunit (natural protein, UniProt P02710 25-461, looked up) SEHETRLVANLLENYNKVIRPVEHHTHFVDITVGLQLIQLISVDEVNQIVETNVRLRQQWIDVRLRWNPADYGGIKKIRLPSDDVWLPDLVLYNNADGDFAIVHMTKLLLDYTGKIMWTPPAIFKSYCEIIVTHFPFDQQNCTMKLGIWTYDGTKVSISPESDRPDLSTFMESGEWVMKDYRGWKHWVYYTCCPDTPYLDITYHFIMQRIPLYFVVNVIIPCLLFSFLTGLVFYLPTDSGEKMTLSISVLLSLTVFLLVIVELIPSTSSAVPLIGKYMLFTMIFVISSIIITVVVINTHHRSPSTHTMPQWVRKIFIDTIPNVMFFSTMKRASKEKQENKIFADDIDISDISGKQVTGEVIFQTPLIKNPDVKSAIEGVKYIAEHMKSDEESSNAAEEWKYVAMVIDHILLCVFMLICIIGTVSVFAGRLIELSQEG | binds | –
2 | B1 | – | binds

Source: article PMC9531584 (Nature structural & molecular biology, 2022)
